Experimental data taken from the supplement of paper PMC10567573.

B1: SMTNL2 (parent)
chain: ETAAGKGKGEARARLKRSQSFGVA

Variants of: B1
Test: protein stability index of a GFP-peptide fusion (GPS, HEK-293T) (PSI 1-6); higher = more stable
Details: c terminus: a fixed tail appended
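Note: lentivirally expressed fusions sorted by FACS into six bins by GFP to DsRed ratio, PSI derived from sequencing read proportions per bin multiplied by bin number.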

Row | Variant | protein stability index
1 | ETAAGKGKGEARARLKRNQSFGVA | 4.5
2 | ETAAGKGKGEARARLKRKQSFGVA | 4.43
3 | ETAAGKGKGEARARLKRTQSFGVA | 4.22
4 | ETAAGKGKGEARARLKRMQSFGVA | 3.69
5 | ETAAGKGKGEARARLKRWQSFGVA | 3.64
6 | ETAAGKGKGEARARLKRVQSFGVA | 3.94
7 | ETAAGKGKGEARARLKRIQSFGVA | 3.52
8 | ETAAGKGKGEARARLKREQSFGVA | 4.36
9 | ETAAGKGKGEARARLKRCQSFGVA | 3.81
10 | ETAAGKGKGEARARLKRLQSFGVA | 3.49
11 | ETAAGKGKGEARARLKRDQSFGVA | 4.46
12 | ETAAGKGKGEARARLKRRQSFGVA | 4.26
13 | ETAAGKGKGEARARLKRAQSFGVA | 4.22
14 | ETAAGKGKGEARARLKRHQSFGVA | 4.02
15 | ETAAGKGKGEARARLKRGQSFGVA | 4.6
16 | ETAAGKGKGEARARLKRYQSFGVA | 2.89
17 | ETAAGKGKGEARARLKRFQSFGVA | 3.65
18 | ETAAGKGKGEARARLKRQQSFGVA | 4.43
19 | ETAAGKGKGEARARLKRPQSFGVA | 4.01
20 | ETAAGKGKGEARARDKRSQSFGVA | 4.03
21 | ETAAGKGKGEARARSKRSQSFGVA | 4.76
22 | ETAAGKGKGEARARKKRSQSFGVA | 4.77
23 | ETAAGKGKGEARARCKRSQSFGVA | 4.24
24 | ETAAGKGKGEARARPKRSQSFGVA | 5.01

Row | Variant | protein stability index
25 | ETAAGKGKGEARARNKRSQSFGVA | 4.89
26 | ETAAGKGKGEARARFKRSQSFGVA | 3.69
27 | ETAAGKGKGEARARWKRSQSFGVA | 4.29
28 | ETAAGKGKGEARARVKRSQSFGVA | 4.76
29 | ETAAGKGKGEARARQKRSQSFGVA | 4.91
30 | ETAAGKGKGEARARYKRSQSFGVA | 4.09
31 | ETAAGKGKGEARARHKRSQSFGVA | 4.44
32 | ETAAGKGKGEARARGKRSQSFGVA | 4.49
33 | ETAAGKGKGEARARRKRSQSFGVA | 4.49
34 | ETAAGKGKGEARARIKRSQSFGVA | 4.51
35 | ETAAGKGKGEARARTKRSQSFGVA | 3.83
36 | ETAAGKGKGEARARAKRSQSFGVA | 4.46
37 | ETAAGKGKGEARARMKRSQSFGVA | 3.95
38 | ETAAGKGKGEARAREKRSQSFGVA | 4.7
39 | ETAAGKGKGEARGRLKRSQSFGVA | 4.78
40 | ETAAGKGKGEARPRLKRSQSFGVA | 4.7
41 | ETAAGKGKGEARWRLKRSQSFGVA | 3.67
42 | ETAAGKGKGEARRRLKRSQSFGVA | 4.05
43 | ETAAGKGKGEARHRLKRSQSFGVA | 4.83
44 | ETAAGKGKGEARNRLKRSQSFGVA | 4.55
45 | ETAAGKGKGEARYRLKRSQSFGVA | 4.3
46 | ETAAGKGKGEARQRLKRSQSFGVA | 4.38
47 | ETAAGKGKGEARTRLKRSQSFGVA | 4.61
48 | ETAAGKGKGEARIRLKRSQSFGVA | 4.54

Row | Variant | protein stability index
49 | ETAAGKGKGEARDRLKRSQSFGVA | 4.4
50 | ETAAGKGKGEARKRLKRSQSFGVA | 4.86
51 | ETAAGKGKGEARCRLKRSQSFGVA | 4.38
52 | ETAAGKGKGEARFRLKRSQSFGVA | 3.9
53 | ETAAGKGKGEARERLKRSQSFGVA | 4.95
54 | ETAAGKGKGEARMRLKRSQSFGVA | 4.05
55 | ETAAGKGKGEARLRLKRSQSFGVA | 4.11
56 | ETAAGKGKGEARSRLKRSQSFGVA | 4.67
57 | ETAAGKGKGEARVRLKRSQSFGVA | 3.82
58 | ETAAGKGKGEAMARLKRSQSFGVA | 3.94
59 | ETAAGKGKGEAPARLKRSQSFGVA | 4.67
60 | ETAAGKGKGEAIARLKRSQSFGVA | 3.95
61 | ETAAGKGKGEAWARLKRSQSFGVA | 3.14
62 | ETAAGKGKGEADARLKRSQSFGVA | 4.79
63 | ETAAGKGKGEAQARLKRSQSFGVA | 4.61
64 | ETAAGKGKGEAKARLKRSQSFGVA | 4.88
65 | ETAAGKGKGEALARLKRSQSFGVA | 4.24
66 | ETAAGKGKGEAAARLKRSQSFGVA | 4.76
67 | ETAAGKGKGEAEARLKRSQSFGVA | 5.03
68 | ETAAGKGKGEAYARLKRSQSFGVA | 4.28
69 | ETAAGKGKGEAFARLKRSQSFGVA | 3.9
70 | ETAAGKGKGEAVARLKRSQSFGVA | 4.83
71 | ETAAGKGKGEACARLKRSQSFGVA | 4.38
72 | ETAAGKGKGEANARLKRSQSFGVA | 3.82

Row | Variant | protein stability index
73 | ETAAGKGKGEAGARLKRSQSFGVA | 5.1
74 | ETAAGKGKGEAHARLKRSQSFGVA | 4.45
75 | ETAAGKGKGEATARLKRSQSFGVA | 3.76
76 | ETAAGKGKGEASARLKRSQSFGVA | 4.92
77 | ETAAGKGKGEARAFLKRSQSFGVA | 4.18
78 | ETAAGKGKGEARAPLKRSQSFGVA | 5.19
79 | ETAAGKGKGEARAALKRSQSFGVA | 3.79
80 | ETAAGKGKGEARAHLKRSQSFGVA | 4.69
81 | ETAAGKGKGEARASLKRSQSFGVA | 4.41
82 | ETAAGKGKGEARANLKRSQSFGVA | 4.68
83 | ETAAGKGKGEARALLKRSQSFGVA | 4.29
84 | ETAAGKGKGEARADLKRSQSFGVA | 4.82
85 | ETAAGKGKGEARAQLKRSQSFGVA | 4.66
86 | ETAAGKGKGEARAILKRSQSFGVA | 4.27
87 | ETAAGKGKGEARAVLKRSQSFGVA | 4.25
88 | ETAAGKGKGEARAELKRSQSFGVA | 4.88
89 | ETAAGKGKGEARAKLKRSQSFGVA | 4.85
90 | ETAAGKGKGEARAYLKRSQSFGVA | 4.09
91 | ETAAGKGKGEARACLKRSQSFGVA | 4.53
92 | ETAAGKGKGEARAMLKRSQSFGVA | 4.27
93 | ETAAGKGKGEARAGLKRSQSFGVA | 4.9
94 | ETAAGKGKGEARATLKRSQSFGVA | 4.4
95 | ETAAGKGKGEARAWLKRSQSFGVA | 4.03
96 | ETAAGKGKGERRARLKRSQSFGVA | 4.73

Row | Variant | protein stability index
97 | ETAAGKGKGEFRARLKRSQSFGVA | 3.71
98 | ETAAGKGKGELRARLKRSQSFGVA | 4.5
99 | ETAAGKGKGEWRARLKRSQSFGVA | 3.65
100 | ETAAGKGKGEHRARLKRSQSFGVA | 4.49
101 | ETAAGKGKGEMRARLKRSQSFGVA | 4.19
102 | ETAAGKGKGEYRARLKRSQSFGVA | 4.06
103 | ETAAGKGKGESRARLKRSQSFGVA | 4.58
104 | ETAAGKGKGEVRARLKRSQSFGVA | 4.02
105 | ETAAGKGKGEPRARLKRSQSFGVA | 4.46
106 | ETAAGKGKGEKRARLKRSQSFGVA | 4.74
107 | ETAAGKGKGENRARLKRSQSFGVA | 4.56
108 | ETAAGKGKGEQRARLKRSQSFGVA | 4.19
109 | ETAAGKGKGETRARLKRSQSFGVA | 4.62
110 | ETAAGKGKGEERARLKRSQSFGVA | 4.69
111 | ETAAGKGKGEGRARLKRSQSFGVA | 4.61
112 | ETAAGKGKGEIRARLKRSQSFGVA | 3.69
113 | ETAAGKGKGEARARLKRSDSFGVA | 4.61
114 | ETAAGKGKGEARARLKRSFSFGVA | 3.67
115 | ETAAGKGKGEARARLKRSYSFGVA | 3.89
116 | ETAAGKGKGEARARLKRSMSFGVA | 4.18
117 | ETAAGKGKGEARARLKRSLSFGVA | 4.08
118 | ETAAGKGKGEARARLKRSHSFGVA | 4.81
119 | ETAAGKGKGEARARLKRSASFGVA | 4.35
120 | ETAAGKGKGEARARLKRSSSFGVA | 3.19

Row | Variant | protein stability index
121 | ETAAGKGKGEARARLKRSTSFGVA | 4.68
122 | ETAAGKGKGEARARLKRSGSFGVA | 4.38
123 | ETAAGKGKGEARARLKRSNSFGVA | 4.89
124 | ETAAGKGKGEARARLKRSPSFGVA | 4.45
125 | ETAAGKGKGEARARLKRSESFGVA | 5.15
126 | ETAAGKGKGEARARLKRSVSFGVA | 3.96
127 | ETAAGKGKGEARARLKRSISFGVA | 3.27
128 | ETAAGKGKGEARARLKRSWSFGVA | 4.33
129 | ETAAGKGKGEARARLKRSCSFGVA | 4.09
130 | ETAAGKGKGEARARLKRSKSFGVA | 4.46
131 | ETAAGKGKGEARARLKRSRSFGVA | 4.3
132 | ETAAGKGKGEARARLLRSQSFGVA | 3.62
133 | ETAAGKGKGEARARLHRSQSFGVA | 4
134 | ETAAGKGKGEARARLDRSQSFGVA | 4.62
135 | ETAAGKGKGEARARLQRSQSFGVA | 4.21
136 | ETAAGKGKGEARARLWRSQSFGVA | 2.59
137 | ETAAGKGKGEARARLERSQSFGVA | 4.57
138 | ETAAGKGKGEARARLFRSQSFGVA | 3.89
139 | ETAAGKGKGEARARLRRSQSFGVA | 4.4
140 | ETAAGKGKGEARARLNRSQSFGVA | 4.46
141 | ETAAGKGKGEARARLPRSQSFGVA | 4.03
142 | ETAAGKGKGEARARLIRSQSFGVA | 3.35
143 | ETAAGKGKGEARARLYRSQSFGVA | 3.74
144 | ETAAGKGKGEARARLVRSQSFGVA | 3.9

Row | Variant | protein stability index
145 | ETAAGKGKGEARARLSRSQSFGVA | 4.35
146 | ETAAGKGKGEARARLCRSQSFGVA | 3.77
147 | ETAAGKGKGEARARLGRSQSFGVA | 4.67
148 | ETAAGKGKGEARARLMRSQSFGVA | 3.83
149 | ETAAGKGKGEARARLARSQSFGVA | 4
150 | ETAAGKGKGEARARLTRSQSFGVA | 4.39
151 | ETAAGKGKGEARARLKRSQDFGVA | 4.58
152 | ETAAGKGKGEARARLKRSQRFGVA | 4.09
153 | ETAAGKGKGEARARLKRSQWFGVA | 3.02
154 | ETAAGKGKGEARARLKRSQAFGVA | 4.56
155 | ETAAGKGKGEARARLKRSQNFGVA | 4.3
156 | ETAAGKGKGEARARLKRSQMFGVA | 4.3
157 | ETAAGKGKGEARARLKRSQFFGVA | 4.09
158 | ETAAGKGKGEARARLKRSQHFGVA | 4.26
159 | ETAAGKGKGEARARLKRSQCFGVA | 4.51
160 | ETAAGKGKGEARARLKRSQPFGVA | 4.27
161 | ETAAGKGKGEARARLKRSQVFGVA | 4.27
162 | ETAAGKGKGEARARLKRSQIFGVA | 3.5
163 | ETAAGKGKGEARARLKRSQQFGVA | 4.08
164 | ETAAGKGKGEARARLKRSQGFGVA | 3.76
165 | ETAAGKGKGEARARLKRSQTFGVA | 4.77
166 | ETAAGKGKGEARARLKRSQYFGVA | 3.98
167 | ETAAGKGKGEARARLKRSQKFGVA | 4.69
168 | ETAAGKGKGEARARLKRSQEFGVA | 4.87

Row | Variant | protein stability index
169 | ETAAGKGKGEARARLKRSQLFGVA | 4.02
170 | ETAAGKGKGEARARLKISQSFGVA | 3.82
171 | ETAAGKGKGEARARLKESQSFGVA | 4.65
172 | ETAAGKGKGEARARLKMSQSFGVA | 4.09
173 | ETAAGKGKGEARARLKHSQSFGVA | 4.54
174 | ETAAGKGKGEARARLKQSQSFGVA | 4.67
175 | ETAAGKGKGEARARLKNSQSFGVA | 4.54
176 | ETAAGKGKGEARARLKYSQSFGVA | 3.81
177 | ETAAGKGKGEARARLKLSQSFGVA | 3.76
178 | ETAAGKGKGEARARLKCSQSFGVA | 3.62
179 | ETAAGKGKGEARARLKASQSFGVA | 4.14
180 | ETAAGKGKGEARARLKGSQSFGVA | 4.24
181 | ETAAGKGKGEARARLKVSQSFGVA | 3.59
182 | ETAAGKGKGEARARLKKSQSFGVA | 4.6
183 | ETAAGKGKGEARARLKDSQSFGVA | 4.31
184 | ETAAGKGKGEARARLKSSQSFGVA | 4.18
185 | ETAAGKGKGEARARLKFSQSFGVA | 3.19
186 | ETAAGKGKGEARARLKTSQSFGVA | 4.17
187 | ETAAGKGKGEARARLKPSQSFGVA | 3.23
188 | ETAAGKGKGEARARLKWSQSFGVA | 2.95
